Test results reported in the supplement of paper PMC9732359.
± gives the uncertainty stated by the source.

Experiment: protein stability index of a GFP-peptide fusion (yeast GPS) (PSI 1-4); higher = more stable; sorted into four equal gates, so the index is relative within each strain
Summary of the method: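 The protein stability index combines read frequencies across sorting gates, each weighted by its gate number and then summed. To obtain those frequencies, a pooled yeast library of GFP fusions to tiled 17-residue yeast protein peptides, on a plasmid also expressing Cherry, was grown to mid-log phase in leucine-free medium. The cells were sorted into four equal gates by GFP/Cherry ratio before plasmid amplification by PCR and Illumina sequencing.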

NLKEYNKFMSIFLKRKD [SRB8]
protein stability index (doa10∆): 1.64 ± 0.06 | protein stability index (pdr5∆): 2.22 ± 0.12 | protein stability index (san1∆): 2.83 ± 0.078 | protein stability index (ubr1∆): 1.88 ± 0.096

VDEEDENGTHNDEVNED [YCG1]
protein stability index (doa10∆): 3.46 ± 0.09 | protein stability index (pdr5∆): 3.32 ± 0.17 | protein stability index (san1∆): 3.55 ± 0.11 | protein stability index (ubr1∆): 3.51 ± 0.077

FVHSVKKFLRVRIFTKI [SRB4]
protein stability index (doa10∆): 2.21 ± 0.082 | protein stability index (pdr5∆): 2.07 ± 0.072 | protein stability index (san1∆): 1.22 ± 0.12 | protein stability index (ubr1∆): 2.07 ± 0.059

TQVFNILLQHKEKLTVQ [POP1]
protein stability index (doa10∆): 3.1 ± 0.084 | protein stability index (pdr5∆): 3.11 ± 0.066 | protein stability index (san1∆): 3.13 ± 0.058 | protein stability index (ubr1∆): 2.94 ± 0.036

HWNLPGERIFNKIRNLE [SIR2]
protein stability index (doa10∆): 3.3 ± 0.098 | protein stability index (pdr5∆): 3.23 ± 0.097 | protein stability index (san1∆): 3.2 ± 0.056 | protein stability index (ubr1∆): 3.29 ± 0.068

ETIQADLNHVTEELQTQ [SMC2]
protein stability index (doa10∆): 3.21 ± 0.14 | protein stability index (pdr5∆): 3.21 ± 0.06 | protein stability index (san1∆): 3.02 ± 0.066 | protein stability index (ubr1∆): 3.01 ± 0.1

SGQKTNRQVMHKMGVER [SIR3]
protein stability index (doa10∆): 3.08 ± 0.21 | protein stability index (pdr5∆): 3.75 ± 0.18 | protein stability index (san1∆): 3.4 ± 0.25 | protein stability index (ubr1∆): 3.27 ± 0.22

KWKPVLSHIVYFLVLSP [RPN5]
protein stability index (doa10∆): 1.39 ± 0.033 | protein stability index (pdr5∆): 1.25 ± 0.031 | protein stability index (san1∆): 1.2 ± 0.057 | protein stability index (ubr1∆): 1.15 ± 0.025

ANNQEYDLNFKLRETLV [SMC1]
protein stability index (san1∆): 3.63 ± 0.18 | protein stability index (ubr1∆): 3.41 ± 0.21

TSKPVFSFGAATPSAKE [YLR335W/NUP2]
protein stability index (doa10∆): 2.95 ± 0.046 | protein stability index (pdr5∆): 3.08 ± 0.053 | protein stability index (san1∆): 3.08 ± 0.043 | protein stability index (ubr1∆): 3.06 ± 0.041

AELNLPTVDEQRQYKVQ [SNF11]
protein stability index (doa10∆): 3.22 ± 0.081 | protein stability index (pdr5∆): 3.3 ± 0.08 | protein stability index (san1∆): 3.12 ± 0.092 | protein stability index (ubr1∆): 3.31 ± 0.067

DFQIDGNIFELLSDTFE [RRI2]
protein stability index (doa10∆): 2.04 ± 0.095 | protein stability index (pdr5∆): 2.47 ± 0.077 | protein stability index (san1∆): 2.95 ± 0.11 | protein stability index (ubr1∆): 3.16 ± 0.17

LQQQQQVVTTVASQSPH [SNF6]
protein stability index (doa10∆): 1.81 ± 0.08 | protein stability index (pdr5∆): 1.92 ± 0.074 | protein stability index (san1∆): 2.03 ± 0.11 | protein stability index (ubr1∆): 2.25 ± 0.049

QVARTNLDGTKAVKLRK [ROX3]
protein stability index (doa10∆): 3.03 ± 0.07 | protein stability index (pdr5∆): 3.13 ± 0.063 | protein stability index (san1∆): 2.98 ± 0.051 | protein stability index (ubr1∆): 3.15 ± 0.058

TDIKQFLELTRRADVKT [RPL38]
protein stability index (doa10∆): 2.95 ± 0.17 | protein stability index (pdr5∆): 3.29 ± 0.17

EAHNKALNQFKRKLLEH [RPT4]
protein stability index (doa10∆): 3.32 ± 0.27 | protein stability index (pdr5∆): 3.14 ± 0.17 | protein stability index (san1∆): 3.46 ± 0.12 | protein stability index (ubr1∆): 3.4 ± 0.15

APSIGRWYQLIATGCKD [YGL100W/SEH1]
protein stability index (doa10∆): 1.52 ± 0.089 | protein stability index (pdr5∆): 1.65 ± 0.068 | protein stability index (san1∆): 1.64 ± 0.11 | protein stability index (ubr1∆): 2.17 ± 0.071

LLTSAGCKNGSFTLLNQ [NUT1]
protein stability index (doa10∆): 2.21 ± 0.12 | protein stability index (pdr5∆): 2.32 ± 0.067 | protein stability index (san1∆): 2.3 ± 0.28 | protein stability index (ubr1∆): 2.68 ± 0.12

YIQRRLVKALEDIMVHY [RPO21]
protein stability index (doa10∆): 1.77 ± 0.049 | protein stability index (pdr5∆): 2.11 ± 0.051 | protein stability index (san1∆): 1.4 ± 0.075 | protein stability index (ubr1∆): 2.05 ± 0.055

EAVDDVFQAKMMDMLKQ [RPN11]
protein stability index (doa10∆): 2.42 ± 0.053 | protein stability index (pdr5∆): 2.58 ± 0.058 | protein stability index (san1∆): 2.02 ± 0.061 | protein stability index (ubr1∆): 2.79 ± 0.065

PQYINYSSIPSLQDSII [SSN2]
protein stability index (doa10∆): 2.97 ± 0.13 | protein stability index (pdr5∆): 2.79 ± 0.12 | protein stability index (san1∆): 2.9 ± 0.21 | protein stability index (ubr1∆): 3.16 ± 0.086

GKLKRCSRCGSVTRAGN [SIN4]
protein stability index (ubr1∆): 3.34 ± 0.16

TSKWLNSITSGGLKSCD [YDL116W/NUP84]
protein stability index (doa10∆): 2.94 ± 0.097 | protein stability index (pdr5∆): 3.17 ± 0.089 | protein stability index (san1∆): 3.42 ± 0.078 | protein stability index (ubr1∆): 2.7 ± 0.052

NLRTQVTQQKRSLDENR [SMC1]
protein stability index (doa10∆): 3.24 ± 0.12 | protein stability index (pdr5∆): 3.09 ± 0.066 | protein stability index (san1∆): 2.91 ± 0.092 | protein stability index (ubr1∆): 3.07 ± 0.086

DDVYRPAAESKIFTPNL [SNF5]
protein stability index (doa10∆): 2.82 ± 0.085 | protein stability index (pdr5∆): 3.09 ± 0.11 | protein stability index (ubr1∆): 3.23 ± 0.19

FSYFFESFESYHNLTTH [RPN6]
protein stability index (doa10∆): 2.61 ± 0.089 | protein stability index (pdr5∆): 2.65 ± 0.082 | protein stability index (san1∆): 2.85 ± 0.084 | protein stability index (ubr1∆): 2.78 ± 0.066

AAIRQPTRYVLIRNVGT [POP1]
protein stability index (doa10∆): 1.64 ± 0.073 | protein stability index (pdr5∆): 2.07 ± 0.083 | protein stability index (san1∆): 1.77 ± 0.11 | protein stability index (ubr1∆): 1.31 ± 0.053

DSSAHFKGALTIKILPE [YMR129W/POM152]
protein stability index (doa10∆): 2.67 ± 0.076 | protein stability index (pdr5∆): 2.62 ± 0.064 | protein stability index (san1∆): 2.37 ± 0.058 | protein stability index (ubr1∆): 2.49 ± 0.042

QEQVYPDFKPWEHTAAE [SRB8]
protein stability index (doa10∆): 2.44 ± 0.16 | protein stability index (pdr5∆): 2.94 ± 0.13 | protein stability index (san1∆): 3.17 ± 0.076 | protein stability index (ubr1∆): 2.93 ± 0.11

SILSFVDKELLEPGCSV [RPT2]
protein stability index (doa10∆): 2.75 ± 0.077 | protein stability index (pdr5∆): 2.86 ± 0.071 | protein stability index (san1∆): 2.3 ± 0.078 | protein stability index (ubr1∆): 3.01 ± 0.066

NESWKSSFEKFNDSQAI [SRP72]
protein stability index (doa10∆): 2.96 ± 0.055 | protein stability index (pdr5∆): 2.96 ± 0.059 | protein stability index (san1∆): 2.79 ± 0.043 | protein stability index (ubr1∆): 3.02 ± 0.037

SNGNNLPLNKPRLEKLI [RGR1]
protein stability index (doa10∆): 3.27 ± 0.052 | protein stability index (pdr5∆): 3.36 ± 0.056 | protein stability index (san1∆): 3.18 ± 0.055 | protein stability index (ubr1∆): 3.16 ± 0.063

LYVPRKCSATNRIIKAD [RPS21A]
protein stability index (doa10∆): 3.08 ± 0.27 | protein stability index (pdr5∆): 1.83 ± 0.2 | protein stability index (san1∆): 2.13 ± 0.12 | protein stability index (ubr1∆): 2.19 ± 0.15

NAASQQPTPRSASNTAK [GAL11]
protein stability index (doa10∆): 2.84 ± 0.082 | protein stability index (pdr5∆): 2.68 ± 0.055 | protein stability index (san1∆): 2.78 ± 0.049 | protein stability index (ubr1∆): 2.67 ± 0.039

NNIIRIQQLISQFLKRV [SNF11]
protein stability index (doa10∆): 2.1 ± 0.039 | protein stability index (pdr5∆): 2.14 ± 0.057 | protein stability index (san1∆): 2.13 ± 0.065 | protein stability index (ubr1∆): 2.3 ± 0.045

RVTNTTSTDFPGFSKDA [RPC40]
protein stability index (pdr5∆): 3.04 ± 0.21

IIPTTLEEQQQLEDESS [YML103C/NUP188]
protein stability index (doa10∆): 1.88 ± 0.081 | protein stability index (pdr5∆): 1.66 ± 0.08 | protein stability index (san1∆): 2.67 ± 0.081 | protein stability index (ubr1∆): 2.86 ± 0.099

VANVKDLETLTMHTKTY [RPL32]
protein stability index (doa10∆): 3.08 ± 0.13 | protein stability index (pdr5∆): 3.01 ± 0.11 | protein stability index (san1∆): 2.98 ± 0.075 | protein stability index (ubr1∆): 2.95 ± 0.077

NVDNQTSDLVKSLGLKL [RPS17A]
protein stability index (doa10∆): 3.2 ± 0.087 | protein stability index (pdr5∆): 3.29 ± 0.084 | protein stability index (san1∆): 3.35 ± 0.066 | protein stability index (ubr1∆): 3.06 ± 0.075

LIEKLQGFSKDTFELIK [YDL116W/NUP84]
protein stability index (doa10∆): 3.21 ± 0.12 | protein stability index (pdr5∆): 3.22 ± 0.093 | protein stability index (san1∆): 3.29 ± 0.064 | protein stability index (ubr1∆): 3.08 ± 0.07

QAQAQAQAQAQAQAQAH [GAL11]
protein stability index (doa10∆): 2.84 ± 0.071 | protein stability index (pdr5∆): 3.05 ± 0.084 | protein stability index (san1∆): 2.84 ± 0.084 | protein stability index (ubr1∆): 3.1 ± 0.1

NNIFKEFTSKIGFTIKE [SMC1]
protein stability index (doa10∆): 2.34 ± 0.054 | protein stability index (pdr5∆): 2.69 ± 0.063 | protein stability index (san1∆): 2.76 ± 0.1 | protein stability index (ubr1∆): 2.7 ± 0.046

EIQPRANIQLDFPELKP [FAS2]
protein stability index (doa10∆): 3.13 ± 0.064 | protein stability index (pdr5∆): 3.11 ± 0.063 | protein stability index (san1∆): 3.12 ± 0.076 | protein stability index (ubr1∆): 3.26 ± 0.042

GYENGMLAQWDLRSPEC [RPN14]
protein stability index (doa10∆): 3.15 ± 0.29 | protein stability index (pdr5∆): 3.6 ± 0.2 | protein stability index (ubr1∆): 3.65 ± 0.16

GVFDPASYAKYLIDHIK [RPL22A]
protein stability index (doa10∆): 2.73 ± 0.25 | protein stability index (san1∆): 3.35 ± 0.16

ETLGDILKRDFELVSDL [ECM29]
protein stability index (doa10∆): 3.27 ± 0.14 | protein stability index (pdr5∆): 3.39 ± 0.17 | protein stability index (san1∆): 2.95 ± 0.22 | protein stability index (ubr1∆): 3.08 ± 0.17

GTAGGNTFGSSSLFNNS [YJL041W/NSP1]
protein stability index (doa10∆): 3.2 ± 0.073 | protein stability index (pdr5∆): 3.09 ± 0.06 | protein stability index (san1∆): 3.12 ± 0.055 | protein stability index (ubr1∆): 3.21 ± 0.059

DVAIENNTLSRYADAGN [RRP43]
protein stability index (doa10∆): 3.36 ± 0.045 | protein stability index (pdr5∆): 3.32 ± 0.048 | protein stability index (san1∆): 3.35 ± 0.035 | protein stability index (ubr1∆): 3.44 ± 0.041

TKIFNSVAEVFQKAQGS [YCG1]
protein stability index (doa10∆): 1.89 ± 0.12 | protein stability index (pdr5∆): 1.55 ± 0.23 | protein stability index (ubr1∆): 1.5 ± 0.07

QPSKVSSNVQQPQQQLG [RTT102]
protein stability index (doa10∆): 2.82 ± 0.081 | protein stability index (pdr5∆): 2.88 ± 0.094 | protein stability index (san1∆): 2.61 ± 0.082 | protein stability index (ubr1∆): 3.03 ± 0.1

KVKAGVRSANEDGTFSV [RRP43]
protein stability index (doa10∆): 3.2 ± 0.097 | protein stability index (pdr5∆): 3.24 ± 0.11 | protein stability index (san1∆): 3.48 ± 0.061 | protein stability index (ubr1∆): 3.43 ± 0.077
